Values joined by “and” are separate entries in the source; they are usually repeats but may differ in a detail not shown here. Equal values may be shown once.
Target: C3b (UniProt P01024 23-667; P01024 749-1663)
Assay: SPR

C3b, sequence (P01024 23-667, chain 1 of 2): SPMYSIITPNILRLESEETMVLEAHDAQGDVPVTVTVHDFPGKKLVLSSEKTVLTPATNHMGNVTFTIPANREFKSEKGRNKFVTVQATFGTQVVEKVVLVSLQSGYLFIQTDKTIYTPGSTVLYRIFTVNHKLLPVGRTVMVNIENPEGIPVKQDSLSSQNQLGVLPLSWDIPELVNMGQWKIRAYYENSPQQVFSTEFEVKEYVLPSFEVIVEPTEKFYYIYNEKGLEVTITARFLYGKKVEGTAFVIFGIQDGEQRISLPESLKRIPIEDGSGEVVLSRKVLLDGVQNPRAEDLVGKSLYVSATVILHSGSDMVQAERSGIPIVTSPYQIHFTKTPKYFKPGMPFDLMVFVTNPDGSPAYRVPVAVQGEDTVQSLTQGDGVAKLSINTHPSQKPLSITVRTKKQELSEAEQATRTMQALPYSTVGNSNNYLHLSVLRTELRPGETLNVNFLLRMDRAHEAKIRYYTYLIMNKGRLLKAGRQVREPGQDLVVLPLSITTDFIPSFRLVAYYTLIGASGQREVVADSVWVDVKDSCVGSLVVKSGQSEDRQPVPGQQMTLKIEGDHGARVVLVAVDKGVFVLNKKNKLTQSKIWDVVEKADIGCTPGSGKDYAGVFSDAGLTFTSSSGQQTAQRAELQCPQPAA
C3b, sequence (P01024 749-1663, chain 2 of 2): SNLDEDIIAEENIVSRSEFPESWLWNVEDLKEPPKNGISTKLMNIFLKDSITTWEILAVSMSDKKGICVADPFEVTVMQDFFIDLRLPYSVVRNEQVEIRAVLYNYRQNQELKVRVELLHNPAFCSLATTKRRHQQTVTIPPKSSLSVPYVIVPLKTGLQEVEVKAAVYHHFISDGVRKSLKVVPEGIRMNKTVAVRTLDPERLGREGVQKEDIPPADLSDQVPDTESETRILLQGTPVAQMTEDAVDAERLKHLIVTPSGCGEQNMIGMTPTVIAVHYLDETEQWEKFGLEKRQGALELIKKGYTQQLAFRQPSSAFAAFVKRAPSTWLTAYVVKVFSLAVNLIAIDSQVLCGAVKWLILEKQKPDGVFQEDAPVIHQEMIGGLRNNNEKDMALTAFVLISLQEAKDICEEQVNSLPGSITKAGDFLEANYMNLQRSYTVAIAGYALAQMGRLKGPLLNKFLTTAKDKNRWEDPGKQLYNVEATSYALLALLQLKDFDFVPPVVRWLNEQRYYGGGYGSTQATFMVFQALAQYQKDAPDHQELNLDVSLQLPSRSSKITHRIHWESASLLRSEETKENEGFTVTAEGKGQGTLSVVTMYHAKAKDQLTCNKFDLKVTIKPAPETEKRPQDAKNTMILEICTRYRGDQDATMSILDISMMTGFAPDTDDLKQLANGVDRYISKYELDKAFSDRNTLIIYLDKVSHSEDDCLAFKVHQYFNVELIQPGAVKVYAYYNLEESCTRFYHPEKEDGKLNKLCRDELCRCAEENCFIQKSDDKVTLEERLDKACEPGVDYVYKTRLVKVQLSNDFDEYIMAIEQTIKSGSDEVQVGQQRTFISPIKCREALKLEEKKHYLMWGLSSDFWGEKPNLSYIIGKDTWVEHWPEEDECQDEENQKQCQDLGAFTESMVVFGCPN

| Kd | Binder |
| --- | --- |
| 1500 nM and 1400 nM | recombinant human complement factor H, V62,Y402 variant (rFH), Endo Hf-deglycosylated (natural protein, UniProt P08603 19-1231, looked up, eight residual N-acetylglucosamine moieties after endoglycosidase H (Endo Hf) digestion of the N-linked glycans) EDCNELPPRRNTEILTGSWSDQTYPEGTQAIYKCRPGYRSLGNVIMVCRKGEWVALNPLRKCQKRPCGHPGDTPFGTFTLTGGNVFEYGVKAVYTCNEGYQLLGEINYRECDTDGWTNDIPICEVVKCLPVTAPENGKIVSSAMEPDREYHFGQAVRFVCNSGYKIEGDEEMHCSDDGFWSKEKPKCVEISCKSPDVINGSPISQKIIYKENERFQYKCNMGYEYSERGDAVCTESGWRPLPSCEEKSCDNPYIPNGDYSPLRIKHRTGDEITYQCRNGFYPATRGNTAKCTSTGWIPAPRCTLKPCDYPDIKHGGLYHENMRRPYFPVAVGKYYSYYCDEHFETPSGSYWDHIHCTQDGWSPAVPCLRKCYFPYLENGYNQNYGRKFVQGKSIDVACHPGYALPKAQTTVTCMENGWSPTPRCIRVKTCSKSSIDIENGFISESQYTYALKEKAKYQCKLGYVTADGETSGSITCGKDGWSAQPTCIKSCDIPVFMNARTKNDFTWFKLNDTLDYECHDGYESNTGSTTGSIVCGYNGWSDLPICYERECELPKIDVHLVPDRKKDQYKVGEVLKFSCKPGFTIVGPNSVQCYHFGLSPDLPICKEQVQSCGPPPELLNGNVKEKTKEEYGHSEVVEYYCNPRFLMKGPNKIQCVDGEWTTLPVCIVEESTCGDIPELEHGWAQLSSPPYYYGDSVEFNCSESFTMIGHRSITCIHGVWTQLPQCVAIDKLKKCKSSNLIILEEHLKNKKEFDHNSNIRYRCRGKEGWIHTVCINGRWDPEVNCSMAQIQLCPPPPQIPNSHNMTTTLNYRDGEKVSVLCQENYLIQEGEEITCKDGRWQSIPLCVEKIPCSQPPQIEHGTINSSRSSQESYAHGTKLSYTCEGGFRISEENETTCYMGKWSSPPQCEGLPCKSPPEISHGVVAHMSDSYQYGEEVTYKCFEGFGIDGPAIAKCLGEKWSHPPSCIKTDCLSLPSFENAIPMGEKKDVYKAGEQVTYTCATYYKMDGASNVTCINSRWTGRPTCRDTSCVNPPTVQNAYIVSRQMSKYPSGERVRYQCRSPYEMFGDEEVMCLNGNWTEPPQCKDSTGKCGPPPPIDNGDITSFPLSVYAPASSVEYQCQNLYQLEGNKRITCRNGQWSEPPKCLHPCVISREIMENYNIALRWTAKQKLYSRTGESVEFVCKRGYRLSSRSHTLRTTCWDGKLEYPTCAKR |
| 2900 nM | plasma-purified human complement factor H (reference FH) (natural protein, UniProt P08603 19-1231, looked up, eight N-glycans (native protein)) EDCNELPPRRNTEILTGSWSDQTYPEGTQAIYKCRPGYRSLGNVIMVCRKGEWVALNPLRKCQKRPCGHPGDTPFGTFTLTGGNVFEYGVKAVYTCNEGYQLLGEINYRECDTDGWTNDIPICEVVKCLPVTAPENGKIVSSAMEPDREYHFGQAVRFVCNSGYKIEGDEEMHCSDDGFWSKEKPKCVEISCKSPDVINGSPISQKIIYKENERFQYKCNMGYEYSERGDAVCTESGWRPLPSCEEKSCDNPYIPNGDYSPLRIKHRTGDEITYQCRNGFYPATRGNTAKCTSTGWIPAPRCTLKPCDYPDIKHGGLYHENMRRPYFPVAVGKYYSYYCDEHFETPSGSYWDHIHCTQDGWSPAVPCLRKCYFPYLENGYNQNYGRKFVQGKSIDVACHPGYALPKAQTTVTCMENGWSPTPRCIRVKTCSKSSIDIENGFISESQYTYALKEKAKYQCKLGYVTADGETSGSITCGKDGWSAQPTCIKSCDIPVFMNARTKNDFTWFKLNDTLDYECHDGYESNTGSTTGSIVCGYNGWSDLPICYERECELPKIDVHLVPDRKKDQYKVGEVLKFSCKPGFTIVGPNSVQCYHFGLSPDLPICKEQVQSCGPPPELLNGNVKEKTKEEYGHSEVVEYYCNPRFLMKGPNKIQCVDGEWTTLPVCIVEESTCGDIPELEHGWAQLSSPPYYYGDSVEFNCSESFTMIGHRSITCIHGVWTQLPQCVAIDKLKKCKSSNLIILEEHLKNKKEFDHNSNIRYRCRGKEGWIHTVCINGRWDPEVNCSMAQIQLCPPPPQIPNSHNMTTTLNYRDGEKVSVLCQENYLIQEGEEITCKDGRWQSIPLCVEKIPCSQPPQIEHGTINSSRSSQESYAHGTKLSYTCEGGFRISEENETTCYMGKWSSPPQCEGLPCKSPPEISHGVVAHMSDSYQYGEEVTYKCFEGFGIDGPAIAKCLGEKWSHPPSCIKTDCLSLPSFENAIPMGEKKDVYKAGEQVTYTCATYYKMDGASNVTCINSRWTGRPTCRDTSCVNPPTVQNAYIVSRQMSKYPSGERVRYQCRSPYEMFGDEEVMCLNGNWTEPPQCKDSTGKCGPPPPIDNGDITSFPLSVYAPASSVEYQCQNLYQLEGNKRITCRNGQWSEPPKCLHPCVISREIMENYNIALRWTAKQKLYSRTGESVEFVCKRGYRLSSRSHTLRTTCWDGKLEYPTCAKR |
